{"source": "patent US20030199671A1", "about": "“Binding molecules for Fc-region polypeptides” (priority 2001, published 2003)", "assay_type_in_all_cases": "binding", "key": {"IgG4": {"molecular_target": "IgG4 (Homo sapiens, UniProt P01861)", "sequence (P01861 1-327 isoform P01861-1)": "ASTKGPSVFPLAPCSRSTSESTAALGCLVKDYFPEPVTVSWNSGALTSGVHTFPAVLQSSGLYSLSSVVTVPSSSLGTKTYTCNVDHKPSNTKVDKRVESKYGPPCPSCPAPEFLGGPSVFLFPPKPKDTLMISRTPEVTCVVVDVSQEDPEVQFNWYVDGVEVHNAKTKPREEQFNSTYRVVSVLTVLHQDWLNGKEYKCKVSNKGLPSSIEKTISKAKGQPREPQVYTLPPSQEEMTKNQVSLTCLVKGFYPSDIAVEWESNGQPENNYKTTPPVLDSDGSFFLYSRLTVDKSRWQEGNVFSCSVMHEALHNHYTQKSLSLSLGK", "design": "all human subtypes derived from myeloma patients; purchased Calbiochem 400126; host or cells: myeloma patients", "outline": "(§1)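 Read-out is A280 of unbound IgG (1.4 mg/ml extinction coefficient), with percent bound derived against non-filtered or negative controls. Targets were incubated with immobilized peptides in PBST or TBST for 1-1.5 h at room temperature. Hydrolyzed Sepharose and immobilized Protein A serve as negative and positive controls.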"}, "human IgG2": {"molecular_target": "T1, human IgG2 (Homo sapiens, UniProt P01859)", "T1 construct": "all human subtypes derived from myeloma patients; purchased Calbiochem 400122; host or cells: myeloma patients", "T1 sequence (P01859 1-326 isoform P01859-1)": "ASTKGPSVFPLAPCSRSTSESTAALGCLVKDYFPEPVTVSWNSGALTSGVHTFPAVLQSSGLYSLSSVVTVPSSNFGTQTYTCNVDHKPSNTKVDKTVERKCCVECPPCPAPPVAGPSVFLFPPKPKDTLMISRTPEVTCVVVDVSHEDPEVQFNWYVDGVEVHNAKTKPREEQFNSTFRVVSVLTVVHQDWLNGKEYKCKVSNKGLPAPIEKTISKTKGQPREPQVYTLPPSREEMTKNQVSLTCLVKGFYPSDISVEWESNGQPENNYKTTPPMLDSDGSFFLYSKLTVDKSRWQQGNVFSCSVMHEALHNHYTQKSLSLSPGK", "outline": "as §1"}, "goat IgG": {"tested_on": "goat IgG", "outline": "(§2)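 Steps: dilute IgG in PBST or TBST; incubate with immobilized peptide 1-1.5 h, RT; collect unbound by centrifugation; measure A280; wash three times; elute with 0.1 M sodium bicarbonate pH 8.5 and/or 0.1 M sodium citrate pH 4.0 for 30-60 min and quantitate.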"}, "human IgG": {"tested_on": "human IgG", "outline": "as §2"}, "human IgG1": {"molecular_target": "T2, human IgG1 (Homo sapiens, UniProt P01857)", "T2 construct": "all human subtypes derived from myeloma patients; purchased Calbiochem 400120; host or cells: myeloma patients", "T2 sequence (P01857 1-330 isoform P01857-1)": "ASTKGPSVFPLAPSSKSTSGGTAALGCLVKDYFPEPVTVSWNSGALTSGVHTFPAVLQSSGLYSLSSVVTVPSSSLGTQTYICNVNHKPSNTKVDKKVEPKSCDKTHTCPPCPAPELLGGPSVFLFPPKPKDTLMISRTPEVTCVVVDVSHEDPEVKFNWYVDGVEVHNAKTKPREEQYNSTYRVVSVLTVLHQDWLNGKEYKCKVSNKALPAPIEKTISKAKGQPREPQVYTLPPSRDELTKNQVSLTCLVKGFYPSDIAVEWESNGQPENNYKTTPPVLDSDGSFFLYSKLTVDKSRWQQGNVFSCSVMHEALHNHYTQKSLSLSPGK", "outline": "(§3)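 Percent bound = control mass minus unbound mass, with unbound IgG read at A280 after 1–1.5 h room-temperature incubation with the peptide resin in PBST pH 7.2 or TBST pH 7.5. Bound IgG was eluted 30–60 min with 0.1 M citrate pH 4.0 and/or bicarbonate pH 8.5. Recovery is given as percent of total load.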"}, "mouse IgG": {"tested_on": "mouse IgG", "outline": "as §2"}, "bovine IgG": {"tested_on": "bovine IgG", "outline": "as §2"}, "IgG3": {"molecular_target": "IgG3 (Homo sapiens, UniProt P01860)", "sequence (P01860 1-377 isoform P01860-1)": "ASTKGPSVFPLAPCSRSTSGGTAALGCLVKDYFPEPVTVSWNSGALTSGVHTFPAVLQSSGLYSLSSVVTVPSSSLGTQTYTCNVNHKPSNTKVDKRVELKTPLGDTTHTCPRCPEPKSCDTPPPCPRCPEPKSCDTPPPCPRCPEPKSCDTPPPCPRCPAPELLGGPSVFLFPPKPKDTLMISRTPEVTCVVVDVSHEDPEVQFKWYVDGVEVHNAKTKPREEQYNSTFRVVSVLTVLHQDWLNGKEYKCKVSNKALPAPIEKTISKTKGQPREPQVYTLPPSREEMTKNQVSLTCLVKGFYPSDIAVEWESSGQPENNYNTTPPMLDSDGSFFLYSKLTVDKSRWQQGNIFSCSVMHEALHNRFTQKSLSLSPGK", "design": "all human subtypes derived from myeloma patients; purchased Calbiochem 400124; host or cells: myeloma patients", "outline": "as §3"}, "[1]": {"details": "Table 9, immobilized peptide, 5.0 mg/ml resin load"}, "[2]": {"details": "Table 10, elution 0.1 M sodium bicarbonate buffer, pH 8.5"}, "[3]": {"details": "Table 10, elution 0.1 M sodium citrate buffer, pH 4.0"}, "[4]": {"details": "Table 13, average ligand density 1.8 μM/ml"}, "[5]": {"details": "Table 14, average ligand density 1.8 μM/ml"}}, "note": "Read-outs that look alike come from different tables or passages of the source."}
{"substance": "Prot. A: immobilized recombinant Protein A (RepliGen Corp., product no. IPA-400), positive control [reference compound]", "values": [{"measurement": "% IgG Capture - Batch Binding, Human IgG4", "setting": "IgG4; [1]", "result": 96, "unit": "%"}, {"measurement": "Human IgG4 bdg % (% of Total Load)", "setting": "IgG4; Table 10, batch binding", "result": 92, "unit": "%"}, {"measurement": "Human IgG4 elu pH 8.5 (% of Total Load)", "setting": "IgG4; [2]", "result": 2, "unit": "%"}, {"measurement": "Human IgG4 elu pH 4.0 (% of Total Load)", "setting": "IgG4; [3]", "result": 95, "unit": "%"}, {"measurement": "hIgG4 elution pH 2.5 (% of Total Load)", "setting": "IgG4; Table 13", "result": 70, "unit": "%"}, {"measurement": "hIgG4 elution pH 3.0 (% of Total Load)", "setting": "IgG4; Table 13", "result": 77, "unit": "%"}, {"measurement": "hIgG4 elution pH 3.5 (% of Total Load)", "setting": "IgG4; Table 13", "result": 87, "unit": "%"}, {"measurement": "hIgG4 elution pH 4.5 (% of Total Load)", "setting": "IgG4; Table 13", "result": 27, "unit": "%"}, {"measurement": "hIgG4 elution pH 5.5 (% of Total Load)", "setting": "IgG4; Table 13", "result": 6, "unit": "%"}, {"measurement": "hIgG4 elution pH 9.0 (% of Total Load)", "setting": "IgG4; Table 13", "result": 7, "unit": "%"}, {"measurement": "hIgG4 elution pH 9.5 (% of Total Load)", "setting": "IgG4; Table 13", "result": 8, "unit": "%"}, {"measurement": "hIgG4 Bound (% of Total Load)", "setting": "IgG4; [4]", "result": 89, "unit": "%"}, {"measurement": "% IgG Capture - Batch Binding, Human IgG2", "setting": "human IgG2; [1]", "result": 92, "unit": "%"}, {"measurement": "Human IgG2 bdg % (% of Total Load)", "setting": "human IgG2; Table 10, batch binding", "result": 93, "unit": "%"}, {"measurement": "Human IgG2 elu pH 8.5 (% of Total Load)", "setting": "human IgG2; [2]", "result": 8, "unit": "%"}, {"measurement": "Human IgG2 elu pH 4.0 (% of Total Load)", "setting": "human IgG2; [3]", "result": 75, "unit": "%"}, {"measurement": "hIgG2 elution pH 2.5 (% of Total Load)", "setting": "human IgG2; Table 13", "result": 75, "unit": "%"}, {"measurement": "hIgG2 elution pH 3.0 (% of Total Load)", "setting": "human IgG2; Table 13", "result": 75, "unit": "%"}, {"measurement": "hIgG2 elution pH 3.5 (% of Total Load)", "setting": "human IgG2; Table 13", "result": 76, "unit": "%"}, {"measurement": "hIgG2 elution pH 4.5 (% of Total Load)", "setting": "human IgG2; Table 13", "result": 65, "unit": "%"}, {"measurement": "hIgG2 elution pH 5.5 (% of Total Load)", "setting": "human IgG2; Table 13", "result": 22, "unit": "%"}, {"measurement": "hIgG2 elution pH 9.0 (% of Total Load)", "setting": "human IgG2; Table 13", "result": 13, "unit": "%"}, {"measurement": "hIgG2 elution pH 9.5 (% of Total Load)", "setting": "human IgG2; Table 13", "result": 18, "unit": "%"}, {"measurement": "hIgG2 Bound (% of Total Load)", "setting": "human IgG2; [4]", "result": 85, "unit": "%"}, {"measurement": "% IgG Capture - Batch Binding, Goat IgG", "setting": "goat IgG; Table 11, unfractionated IgG", "result": 23, "unit": "%"}, {"measurement": "% IgG Capture - Batch Binding, Goat IgG", "setting": "goat IgG; [5]", "result": 20, "unit": "%"}, {"measurement": "% IgG Capture - Batch Binding, Human IgG", "setting": "human IgG; Table 11, unfractionated IgG", "result": 86, "unit": "%"}, {"measurement": "% IgG Capture - Batch Binding, Human IgG", "setting": "human IgG; [5]", "result": 81, "unit": "%"}, {"measurement": "% IgG Capture - Batch Binding, Human IgG1", "setting": "human IgG1; [1]", "result": 95, "unit": "%"}, {"measurement": "Human IgG1 bdg % (% of Total Load)", "setting": "human IgG1; Table 10, batch binding", "result": 93, "unit": "%"}, {"measurement": "Human IgG1 elu pH 8.5 (% of Total Load)", "setting": "human IgG1; [2]", "result": 2, "unit": "%"}, {"measurement": "Human IgG1 elu pH 4.0 (% of Total Load)", "setting": "human IgG1; [3]", "result": 79, "unit": "%"}, {"measurement": "hIgG1 elution pH 2.5 (% of Total Load)", "setting": "human IgG1; Table 13", "result": 80, "unit": "%"}, {"measurement": "hIgG1 elution pH 3.0 (% of Total Load)", "setting": "human IgG1; Table 13", "result": 80, "unit": "%"}, {"measurement": "hIgG1 elution pH 3.5 (% of Total Load)", "setting": "human IgG1; Table 13", "result": 86, "unit": "%"}, {"measurement": "hIgG1 elution pH 4.5 (% of Total Load)", "setting": "human IgG1; Table 13", "result": 29, "unit": "%"}, {"measurement": "hIgG1 elution pH 5.5 (% of Total Load)", "setting": "human IgG1; Table 13", "result": 3, "unit": "%"}, {"measurement": "hIgG1 elution pH 9.0 (% of Total Load)", "setting": "human IgG1; Table 13", "result": 3, "unit": "%"}, {"measurement": "hIgG1 elution pH 9.5 (% of Total Load)", "setting": "human IgG1; Table 13", "result": 3, "unit": "%"}, {"measurement": "hIgG1 Bound (% of Total Load)", "setting": "human IgG1; [4]", "result": 96, "unit": "%"}, {"measurement": "% IgG Capture - Batch Binding, Mouse IgG", "setting": "mouse IgG; Table 11, unfractionated IgG", "result": 77, "unit": "%"}, {"measurement": "% IgG Capture - Batch Binding, Mouse IgG", "setting": "mouse IgG; [5]", "result": 69, "unit": "%"}, {"measurement": "% IgG Capture - Batch Binding, Bovine IgG", "setting": "bovine IgG; Table 11, unfractionated IgG", "result": 72, "unit": "%"}, {"measurement": "% IgG Capture - Batch Binding, Bovine IgG", "setting": "bovine IgG; [5]", "result": 60, "unit": "%"}, {"measurement": "% IgG Capture - Batch Binding, Human IgG3", "setting": "IgG3; [1]", "result": 1, "unit": "%"}, {"measurement": "Human IgG3 bdg % (% of Total Load)", "setting": "IgG3; Table 10, batch binding", "result": 5, "unit": "%"}, {"measurement": "Human IgG3 elu pH 8.5 (% of Total Load)", "setting": "IgG3; [2]", "result": 0, "unit": "%"}, {"measurement": "Human IgG3 elu pH 4.0 (% of Total Load)", "setting": "IgG3; [3]", "result": 0, "unit": "%"}, {"measurement": "hIgG3 elution pH 2.5 (% of Total Load)", "setting": "IgG3; Table 13", "result": 0, "unit": "%"}, {"measurement": "hIgG3 elution pH 3.0 (% of Total Load)", "setting": "IgG3; Table 13", "result": 0, "unit": "%"}, {"measurement": "hIgG3 elution pH 3.5 (% of Total Load)", "setting": "IgG3; Table 13", "result": 0, "unit": "%"}, {"measurement": "hIgG3 elution pH 4.5 (% of Total Load)", "setting": "IgG3; Table 13", "result": 0, "unit": "%"}, {"measurement": "hIgG3 elution pH 5.5 (% of Total Load)", "setting": "IgG3; Table 13", "result": 0, "unit": "%"}, {"measurement": "hIgG3 elution pH 9.0 (% of Total Load)", "setting": "IgG3; Table 13", "result": 0, "unit": "%"}, {"measurement": "hIgG3 elution pH 9.5 (% of Total Load)", "setting": "IgG3; Table 13", "result": 0, "unit": "%"}, {"measurement": "hIgG3 Bound (% of Total Load)", "setting": "IgG3; [4]", "result": 0, "unit": "%"}]}
